Test results taken from patent US20170314054A1 (ROCHE SEQUENCING SOLUTIONS, published 2017).
No end group written: not given here.

T1: microbial transglutaminase from Streptomyces mobaraensis (MTG) (Streptomyces mobaraensis, UniProt P81453 77-407)
T1 sequence (looked up): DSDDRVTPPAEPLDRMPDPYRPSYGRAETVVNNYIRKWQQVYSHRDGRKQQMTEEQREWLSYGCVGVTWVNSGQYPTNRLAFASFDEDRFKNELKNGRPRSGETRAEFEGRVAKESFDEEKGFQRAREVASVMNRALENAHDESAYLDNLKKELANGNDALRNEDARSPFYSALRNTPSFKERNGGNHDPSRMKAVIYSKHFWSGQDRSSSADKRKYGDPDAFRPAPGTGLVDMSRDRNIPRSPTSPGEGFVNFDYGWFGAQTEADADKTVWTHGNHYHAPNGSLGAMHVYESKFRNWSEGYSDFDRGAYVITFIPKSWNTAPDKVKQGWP


Target: T1, microbial transglutaminase from …
Assay: cell-based or functional assay

Row | Binder | Log2(signal), array MTG labeling with N-(Biotinyl)cadaverine
1 | FYALQ (also: flanked by G:S (3:1) linkers on peptide array) [FYALQ (SEQ ID NO: 10)] | 15.4 Log2(signal)
2 | NYALQ (also: flanked by G:S (3:1) linkers on peptide array) [NYALQ (SEQ ID NO: 3)] | 15.5 Log2(signal)
3 | DFALQ [DFALQ (SEQ ID NO: 7)] | 15.4 Log2(signal)
4 | WYALQ (not fully specified) [WYALQ (SEQ ID NO: 17)] | 15.3 Log2(signal)
5 | PYALQ (also: flanked by G:S (3:1) linkers on peptide array) [PYALQ (SEQ ID NO: 5)] | 15.4 Log2(signal)
6 | DYALQ [DYALQ (SEQ ID NO: 1)] | 15.5 Log2(signal)
7 | EYVAQ (also: flanked by G:S (3:1) linkers on peptide array) [EYVAQ (SEQ ID NO: 13)] | 15.3 Log2(signal)
8 | NYVLQ (also: flanked by G:S (3:1) linkers on peptide array) [NYVLQ (SEQ ID NO: 12)] | 15.3 Log2(signal)
9 | DYVAQ [DYVAQ (SEQ ID NO: 20)] | 15.2 Log2(signal)
10 | HYALQ (also: flanked by G:S (3:1) linkers on peptide array) [HYALQ (SEQ ID NO: 19)] | 15.2 Log2(signal)
11 | EYALQ (also: flanked by G:S (3:1) linkers on peptide array) [EYALQ (SEQ ID NO: 4)] | 15.5 Log2(signal)
12 | DFYLQ [DFYLQ (SEQ ID NO: 22)] | 15.2 Log2(signal)
13 | EFALQ (also: flanked by G:S (3:1) linkers on peptide array) [EFALQ (SEQ ID NO: 23)] | 15.2 Log2(signal)
14 | SYALQ (not fully specified) [SYALQ (SEQ ID NO: 18)] | 15.2 Log2(signal)
15 | NFVLQ (not fully specified; also: flanked by G:S (3:1) linkers on peptide array) [NFVLQ (SEQ ID NO: 25)] | 15.2 Log2(signal)
16 | EYFLQ (also: flanked by G:S (3:1) linkers on peptide array) [EYFLQ (SEQ ID NO: 24)] | 15.2 Log2(signal)
17 | RYALQ (not fully specified) [RYALQ (SEQ ID NO: 14)] | 15.3 Log2(signal)
18 | PYVLQ (also: flanked by G:S (3:1) linkers on peptide array) [PYVLQ (SEQ ID NO: 16)] | 15.3 Log2(signal)
19 | DYVLQ (also: flanked by G:S (3:1) linkers on peptide array) [DYVLQ (SEQ ID NO: 2)] | 15.5 Log2(signal)
20 | NYFLQ (also: flanked by G:S (3:1) linkers on peptide array) [NYFLQ (SEQ ID NO: 9)] | 15.4 Log2(signal)
21 | DYTLQ [DYTLQ (SEQ ID NO: 11)] | 15.3 Log2(signal)
22 | DYFLQ [DYFLQ (SEQ ID NO: 8)] | 15.4 Log2(signal)
23 | EFVAQ (also: flanked by G:S (3:1) linkers on peptide array) [EFVAQ (SEQ ID NO: 21)] | 15.2 Log2(signal)
24 | EYVLQ (not fully specified; also: flanked by G:S (3:1) linkers on peptide array) [EYVLQ (SEQ ID NO: 6)] | 15.4 Log2(signal)
25 | YFALQ (not fully specified) [YFALQ (SEQ ID NO: 15)] | 15.3 Log2(signal)

Target: T1, microbial transglutaminase from …
Assay: cell-based or functional assay
Remark: another data set of the same source

Row | Binder | A (array MTG labeling signal with Z-Gln-Gly-CAD-biotin)
26 | KSKLA (also: flanked by G:S (3:1) linkers on peptide array) [KSKLA (SEQ ID NO: 55)] | 13.4
27 | ARSKL [ARSKL (SEQ ID NO: 54)] | 13.4
28 | TKSKL (not fully specified) [TKSKL (SEQ ID NO: 56)] | 13.4
29 | FTKSK (also: flanked by G:S (3:1) linkers on peptide array) [FTKSK (SEQ ID NO: 64)] | 13.4
30 | KLKYK (also: flanked by G:S (3:1) linkers on peptide array) [KLKYK (SEQ ID NO: 65)] | 13.4
31 | KLSKL (also: flanked by G:S (3:1) linkers on peptide array) [KLSKL (SEQ ID NO: 57)] | 13.4
32 | RSKSK (not fully specified) [RSKSK (SEQ ID NO: 62)] | 13.4
33 | RSKLG (not fully specified) [RSKLG (SEQ ID NO: 58)] | 13.4
34 | RGTKL (also: flanked by G:S (3:1) linkers on peptide array) [RGTKL (SEQ ID NO: 60)] | 13.4
35 | SKSKL (not fully specified) [SKSKL (SEQ ID NO: 63)] | 13.4
36 | RGSKL (also: flanked by G:S (3:1) linkers on peptide array) [RGSKL (SEQ ID NO: 59)] | 13.4
37 | FPKLK (also: flanked by G:S (3:1) linkers on peptide array) [FPKLK (SEQ ID NO: 61)] | 13.4
